The record followed here is patent US8889130B2, “Treatment of osteoarthritis and pain” (Abbvie Inc., priority 2011, dated 2014).

One experiment concerns DMM mice. In words: DMM model of osteoarthritis, mechanical allodynia (paw withdrawal threshold). Particulars: Example 5 (FIG. 12); 6 mg/kg ip twice per week for four weeks; day 28. Type of experiment: in vivo, mouse. The protocol: The DMM model also generates measurable pain in the mice. […] The efficacy of anti-IL-1α/β therapy was studied in the DMM animal model.
The potential of anti-IL-1 therapy to ameliorate pain was tested in the DMM mouse model of OA in terms of mechanical allodynia. Dosing of the combination of IL-1α and IL-1β mAbs was initiated on the day of the surgery and was repeated twice a week for 5 weeks. Animals were treated with PBS vehicle alone, with an IgG isotype control, or with a combination of anti-IL-1α and anti-IL-1β mAbs (at a dose of 6 mg/kg for each mAb). Animals were tested weekly for paw withdrawal threshold. […] This reduction in pain was seen as early as week 1 following treatment (data not shown).
To evaluate the effect of IL-1 therapy in established pain, animals in the IgG control group with established OA and mechanical allodynia were treated on day 35 with the combination of anti-IL-1α and anti-IL-1β monoclonal antibodies and the paw withdrawal threshold was tested 24 hours later (day 36).
The potential of anti-IL-1 therapy to ameliorate pain in the DMM mouse model of OA (see, above) in terms of mechanical allodynia was further evaluated. Dosing of the combination of IL-1α and IL-1β mAbs was initiated on the day of the surgery and was repeated twice a week for 4 weeks. […]

Another experiment deals with both IL-1α and IL-1β. In words: MRC-5 assay in the presence of both IL-1α and IL-1β (IL-8 synthesis). The class given is cell-based, human. Particulars: equal amounts of hIL-1α and hIL-1β in the same culture; read-out: dual-inhibition activity (IL-8 synthesis by MRC-5 cells). The protocol: (§1) The biological activity of DVD-Ig was measured using MRC-5 bioassay. The MRC-5 cell line is a human lung fibroblast cell line that produces IL-8 in response to human IL-1α and IL-1β in a dose-dependent manner. MRC-5 cells were obtained from ATCC and cultured in 10% FBS complete MEM at 37° C. in a 5% CO2 incubator. To determine neutralizing activity of the DVD-Ig against human IL-1α or IL-1β, 50 μl of antibody (1×10^−7 to 1×10^−12 M) in MEM/10% FBS was added to a 96 well plate and pre-incubated with 50 μl of hIL-1α or hIL-1β (200 pg/ml) for 1 hour at 37° C., 5% CO2. MRC-5 cells at a concentration of 1×10^5/ml were then added (100 μl) to all wells, and the plates were incubated overnight at 37° C. in a 5% CO2 incubator. The supernatants were harvested and human IL-8 production measured by standard ELISA (R&D Systems, Minneapolis, Minn.). Neutralizing activity of the DVD-Ig binding protein was determined by its ability to inhibit IL-8 production.
To determine if DVD-Ig binding protein was able to inhibit IL-8 production in the presence of both IL-1α and IL-1β, equal amounts of hIL-1α and hIL-1β were added in the same culture system of MRC-5 assay. […]

The next experiment deals with hIL-1β (Homo sapiens, UniProt P01584). The experiment in a line: MRC-5 bioassay: neutralization of hIL-1β-induced IL-8 production. Type of experiment: cell-based. The protocol: The MRC-5 cell line is a human lung fibroblast cell line that produces IL-8 in response to human IL-1α and IL-1β in a dose-dependent manner (see, Dinarello, Muegge, and Durum (2000) Curr. Protocols Immunol. 6:1). MRC-5 cells were cultured in 10% FBS complete MEM and grown at 37° C. in a 5% CO2 incubator. […] The supernatants were harvested, diluted, and IL-8 concentrations measured by ELISA using a standard IL-8 ELISA kit (R&D Systems). Antibody potency was determined by its ability to inhibit IL-8 production by MRC-5 cells.
Sequence of hIL-1β (P01584 117-269): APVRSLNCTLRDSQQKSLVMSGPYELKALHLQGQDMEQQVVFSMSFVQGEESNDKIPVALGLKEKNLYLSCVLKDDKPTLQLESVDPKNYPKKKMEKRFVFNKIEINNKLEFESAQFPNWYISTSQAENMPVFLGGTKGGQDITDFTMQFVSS
as §1, with “MRC-5 cells at a concentration of 1×10^5/ml were then added (100 μl) to all wells, and the plates were incubated overnight at 37° C. in a 5% CO2 incubator.” left out

B1: 10G11: mouse anti-mouse IL-1β monoclonal antibody (clone 10G11) from IL-1α/β double KO mice (antibody, V domains shown)
VH: EVQLQQSGPELVKPGTSVKMSCKTSGYTFTSYVMHWVKQKPGQGLEWIGYIIPYNDNTKYNEKFKGKATLTSDKSSSTAYMELSSLTSEDSAVYYCARRNEYYGSSFFDYWGQGTTLTVSS
VL: DIQMTQSPASLSASVGETVTITCRGSGILHNYLVWYQQKQGKSPQLLVYSAKILADGVPSRFSGSGSGTQYSLKINSLQPEDFGSYYCQHFWSTPFTFGSGTKLEIKR
modifications: heavy chain variable domain of 10G11; light chain variable domain of 10G11
notes: mouse anti-mouse IL-1β monoclonal antibody (clone 10G11) from IL-1α/β double KO mice
For the molecule B1, in the experiment with DMM mice, the “paw withdrawal threshold (allodynia)” value is on record as “allodynic (painful)”.

B2: DVD2-Ig: DVD-Ig as DVD1-Ig but with linkers ADAAP (light chain) and AKTTPP (heavy chain) (antibody)
VH: MQLSGLTSEDSAMYFCVRFPTGNDYYAMDYWGQGTSVTVSSAKTTPPQIQLVQSGPELKKPGETVKISCKASGYTFRNYGMNWVKQAPGKDLKRMAWINTYTGESTYADDFKGRFAFSLETSASTAYLQINNLKNEDTATYFCARGIYYYGSSYAMDYWGQGTSVTVSS
VL: PVEADDAATYYCQQNNEDPFTFGSGTKLEIKRADAAPNIQMTQTTSSLSASLGDRVTISCRASQDISNCLNWYQQKPDGTVKLLIYYTSRLHSGVPSRFSGSGSGTDYSLTISNLEQEDIATYFCQQGKTLPYAFGGGTKLEINR
For the molecule B2, the IC50 in the experiment with both IL-1α and IL-1β was 1.2 nM. Moreover, the “neutralizing activity to hIL-1β, fold higher than that of DVD1-Ig” value with hIL-1β is 3 fold.

B3: DVD1-Ig: DVD-Ig binding hIL-1α and hIL-1β; VH/VL of 13F5.G5 fused directly to N-terminus of 3D12.E3 VH/VL, no linker (antibody)
VH: MQLSGLTSEDSAMYFCVRFPTGNDYYAMDYWGQGTSVTVSSQIQLVQSGPELKKPGETVKISCKASGYTFRNYGMNWVKQAPGKDLKRMAWINTYTGESTYADDFKGRFAFSLETSASTAYLQINNLKNEDTATYFCARGIYYYGSSYAMDYWGQGTSVTVSS
VL: PVEADDAATYYCQQNNEDPFTFGSGTKLEIKRNIQMTQTTSSLSASLGDRVTISCRASQDISNCLNWYQQKPDGTVKLLIYYTSRLHSGVPSRFSGSGSGTDYSLTISNLEQEDIATYFCQQGKTLPYAFGGGTKLEINRR
Consider B3, for which the IC50 in the experiment with both IL-1α and IL-1β was determined as 2.2 nM; with hIL-1β (antigen hIL-1β, read-out: Potency IC50), 3.1 nM.
